This note sets out measurements from patent US20220119492A1 (MEDIKINE, published 2022).

Primed or numbered codes have the meaning given here. Ends that are not written are not given here. PEG10 = NCCOCCOCCOCCOCCOCCOCCOCCOCCOCCOCCC(=O)O; PEG20′ = not defined here; PEG4′ = not defined here A value given as a limit tells only on which side of the number the result lay.

For one test, the target named is T1, hu-IL-2R (human, UniProt P14784 27-551; P31785 23-369).
T1 sequence (looked up) 1: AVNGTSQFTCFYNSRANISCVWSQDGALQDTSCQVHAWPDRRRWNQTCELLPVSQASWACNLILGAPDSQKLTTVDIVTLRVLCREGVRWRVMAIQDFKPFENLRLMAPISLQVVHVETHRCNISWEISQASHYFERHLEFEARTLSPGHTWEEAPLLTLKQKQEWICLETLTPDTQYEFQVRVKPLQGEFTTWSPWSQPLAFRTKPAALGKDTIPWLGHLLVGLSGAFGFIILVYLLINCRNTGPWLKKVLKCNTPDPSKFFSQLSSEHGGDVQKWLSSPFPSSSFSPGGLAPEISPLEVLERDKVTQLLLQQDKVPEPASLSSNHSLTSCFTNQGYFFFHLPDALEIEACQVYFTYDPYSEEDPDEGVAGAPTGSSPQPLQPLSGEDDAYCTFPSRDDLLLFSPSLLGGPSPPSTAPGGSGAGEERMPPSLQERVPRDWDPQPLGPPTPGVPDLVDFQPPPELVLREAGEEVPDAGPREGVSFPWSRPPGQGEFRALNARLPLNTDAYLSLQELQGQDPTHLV
T1 sequence (looked up) 2: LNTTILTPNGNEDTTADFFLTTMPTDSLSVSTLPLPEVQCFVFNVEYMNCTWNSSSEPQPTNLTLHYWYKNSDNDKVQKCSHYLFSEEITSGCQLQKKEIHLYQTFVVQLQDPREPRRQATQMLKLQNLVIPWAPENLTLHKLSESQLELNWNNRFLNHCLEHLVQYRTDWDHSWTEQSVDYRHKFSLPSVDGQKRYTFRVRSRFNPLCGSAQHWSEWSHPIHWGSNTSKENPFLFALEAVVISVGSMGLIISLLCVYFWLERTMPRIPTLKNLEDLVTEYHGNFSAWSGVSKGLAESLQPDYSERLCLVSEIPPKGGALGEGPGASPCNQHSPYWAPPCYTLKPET
Briefly: cell-based or functional assay.

Test [1] has as its target T2, human IL-2Rβ (CD122 protein, Fc Tag) (27-239) (human, UniProt P14784 27-239).
T2 construct: range 27-239; Bought protein; also called hu-IL-2Rβ subunit; IL-2Rβ subunit; not shown: Fc tag of the bought protein
T2 sequence (looked up): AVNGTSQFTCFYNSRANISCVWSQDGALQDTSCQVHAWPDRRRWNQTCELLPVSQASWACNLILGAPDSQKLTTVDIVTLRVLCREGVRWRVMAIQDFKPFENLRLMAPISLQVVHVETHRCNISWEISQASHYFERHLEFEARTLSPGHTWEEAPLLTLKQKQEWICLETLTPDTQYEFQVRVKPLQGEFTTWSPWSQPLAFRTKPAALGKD
Briefly: IL-2Rβ IC50, assay not named in Example 29.

The target in test [2] is T3, human IL-2Rγc (CD132 protein, Fc Tag) (23-254) (human, UniProt P31785 23-254).
T3 construct: range 23-254; Bought protein; also called hu-IL-2Rγc subunit; IL-2Rγc subunit; not shown: Fc tag of the bought protein
T3 sequence (looked up): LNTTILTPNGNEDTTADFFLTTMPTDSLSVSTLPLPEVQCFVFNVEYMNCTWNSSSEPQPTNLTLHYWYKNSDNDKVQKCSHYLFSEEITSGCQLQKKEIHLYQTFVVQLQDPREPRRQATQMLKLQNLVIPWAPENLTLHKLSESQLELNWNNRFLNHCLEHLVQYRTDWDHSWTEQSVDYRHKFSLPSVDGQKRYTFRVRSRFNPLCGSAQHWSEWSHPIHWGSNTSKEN
Nature of the test: IL-2Rγc IC50, assay not named in Example 29.

The target in test [3] is T3, human IL-2Rγc (CD132 protein, Fc Tag) …. Briefly: competitive binding ELISA (Example 28). As to the method:
In this example, IL-2R ligands were diluted to 2-times final assay concentration in PBT (1×PBS pH 7.2, 0.5% Bovine Serum Albumin, 0.05% Tween®20) and serially diluted. Fifty (50) μL was added to the appropriate wells. The plates were then incubated at 4° C. for 1 hr.
Without washing, fifty (50) μL of representative phage were added to the assay wells (phage tracer). The plates were then incubated at 4° C. for 45 min.
A general note: An ELISA detects its analyte on a solid surface through an enzyme-linked reagent.

Test [4] addresses T4, cynomolgus monkey IL-2Rβ subunit (cynomolgus monkey).
T4 construct: Bought protein; also called cyno-IL-2Rβ subunit
Nature of the test: competition ELISA, peptide tracer. The procedure: (§1) Binding of Fc fusions to IL-2Rβ and IL-2Rγc were measured using a competition binding ELISA with biotinylated peptide/NeutrAvidin-HRP tracer. ELISA plate was prepared as described in Example 27.
(§2) The plate was washed 4 times with PT (1×PBS, 0.05% Tween® 20) buffer. Fifty (50) μL of IL-2R ligands serially diluted in PBT was added to appropriate wells then incubated at 4° C. for 1 hr.
(§3) At the appropriate time, the precomplexed bn-peptide/NA-HRP tracer was diluted to 2-fold its predetermined binding EC80 (typically 30 to 10 nM) without washing. fifty (50) μL of bn-peptide/NA-HRP tracer was added to each well and incubated at 4° C. for 45 mins.

Test [5] addresses T3, human IL-2Rγc (CD132 protein, Fc Tag) …. Briefly: competition ELISA, peptide tracer. As to the method:
as §1, §2, §3

In test [6] the target is T2, human IL-2Rβ (CD122 protein, Fc Tag) …. Nature of the test: competition ELISA, peptide tracer. The procedure:
as §1, §2, §3

Test [7] deals with T5, cynomolgus monkey Rγc subunit (cynomolgus monkey).
T5 construct: also called cyno-IL-2Rγc subunit
Nature of the test: competition ELISA, peptide tracer. The procedure: as §1, §2, §3

T4 sequence (Q38J85 whole entry): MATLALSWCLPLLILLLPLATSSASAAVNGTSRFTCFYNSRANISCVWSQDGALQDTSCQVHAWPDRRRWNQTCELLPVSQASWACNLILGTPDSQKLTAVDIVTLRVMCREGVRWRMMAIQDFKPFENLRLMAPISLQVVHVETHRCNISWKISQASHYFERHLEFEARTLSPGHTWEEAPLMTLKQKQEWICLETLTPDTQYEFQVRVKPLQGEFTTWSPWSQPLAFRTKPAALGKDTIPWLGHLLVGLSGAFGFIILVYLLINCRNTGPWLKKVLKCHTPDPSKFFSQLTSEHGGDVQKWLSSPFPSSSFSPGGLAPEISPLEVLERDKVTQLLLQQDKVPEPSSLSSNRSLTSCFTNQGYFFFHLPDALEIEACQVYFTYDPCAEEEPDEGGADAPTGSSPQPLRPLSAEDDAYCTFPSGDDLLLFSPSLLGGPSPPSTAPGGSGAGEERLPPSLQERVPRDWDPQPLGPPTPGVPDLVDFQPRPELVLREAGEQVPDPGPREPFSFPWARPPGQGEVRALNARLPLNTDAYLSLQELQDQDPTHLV

B1: PEG-IL-2Rβγc ligand construct PEG-1 (peptide)
peptide: {PEG 40 kDa branched-PEG10}-GGWYPCWMAQLGELCDLDGGGGSGGVVCQDWEGVELCWQGG
modifications: not fully specified; printed as -GGWYPCWMAQLGELCDLDGGGGSGGVVCQDWEGVELCWQGG-; cysteine pairing not given here
For orientation: IC50 means the point on the concentration scale where inhibition reaches its midpoint. Consider B1, for which the “EC50 (STAT5, NK92)” value with hu-IL-2R stood at 5.8 nM. Further, the IC50 in test [1] was determined as 31 nM; in test [2], 26 nM.

B2: IL-2Rγc ligand SEQ ID NO: 236 (peptide)
peptide: MCWLEWGEWVGSCL
notes: Used as synthetic peptide and as phage clone; also called family 2
Consider B2, for which, in test [3], the IC50 is < 10000 nM.

B3: SEQ ID NO 4170 (peptide)
peptide: GGGELLVDCFKVKVGELCDLFFGGGGGSGGGGSGGGGSGGGGSGGVVCQDWEGVELCWQGG
In the case of B3, the IC50 in test [4], in test [5], in test [6] and in test [7] was < 100000 nM each time.
Regarding {PEG 40 kDa branched-PEG20′}-GGWYPCWMAQLGELCDLDGGGGSGGVVCQDWEGVELCWQGG (cysteine pairing not given here; reading uncertain) [PEG-IL-2Rβγc ligand construct PEG-7], the “EC50 (STAT5, NK92)” value with hu-IL-2R worked out at 8.3 nM. For the same molecule, the IC50 in test [1] stood at 3.4 nM; in test [2], 1.7 nM.

B4: IL-2Rγc ligand SEQ ID NO: 1032 (peptide)
peptide: SLLKCYNASTCASVF
notes: Used as synthetic peptide and as phage clone; also called family 5
For the molecule B4, the IC50 in test [3] is < 10000 nM.
Turning to GGWYPCWMAQLGELCDLDGGGGSGGVVCQDWEGVELCWQGG-{PEG4′-PEG 40 kDa branched} (cysteine pairing not given here) [PEG-IL-2Rβγc ligand construct PEG-2], the “EC50 (STAT5, NK92)” value with hu-IL-2R amounted to 273 nM. The IC50 in test [1] was 8 nM; in test [2], 690 nM.
On to VDCFKVKVGELCDLFFGPAPAPAPAPAPAPAPAGVVCQDWEGVELCWQ [SEQ ID NO 4180], for which the IC50 in test [4], in test [5], in test [6] and in test [7] was < 100000 nM in each case.
Consider RTCTEWENVVLCWV (also called family 1A) [IL-2Rγc ligand SEQ ID NO: 202], for which the IC50 in test [3] is < 10000 nM.

B5: IL-2Rβγc ligand having SEQ ID NO: 4171 (peptide)
peptide: GGGELLVDCFKVKVGELCDLFFGPAPAPAPAPAPAPAPAGVVCQDWEGVELCWQGG
On to B5, for which the IC50 in test [4], in test [5], in test [6] and in test [7] was < 100000 nM each time.

B6: IL-2Rγc ligand SEQ ID NO: 198 (peptide)
peptide: KVCEMWGGVLLCWN
notes: Used as phage clone; also called family 1A
As for B6, in test [3], the IC50 is < 10000 nM.

B7: IL-2Rβγc ligand BGL22 (peptide)
peptide 1: GGRYVHDCFIAQVGALCDLFLHPAPAPAPAPAPAPAPA
peptide 2: VVCQDWEGVELCWQGG
modifications: cysteine pairing not given here; also: two chains joined by non-peptidyl linker L11 (click chemistry)
notes: Made by click chemistry
B7: the IC50 in test [4], in test [5], in test [6] and in test [7] was < 100000 nM throughout.

B8: IL-2Rβγc ligand BGL23 (peptide)
peptide 1: GGRYVHACFIAQVGDLCDLFLHPAPAPAPAPAPAPAPA
peptide 2: VVCQDWEGVELCWQGG
modifications: cysteine pairing not given here; also: two chains joined by non-peptidyl linker L11 (click chemistry)
notes: Made by click chemistry
With B8, the IC50 in test [4], in test [5], in test [6] and in test [7] was < 100000 nM throughout.

B9: IL-2Rβγc ligand BGL24 (peptide)
peptide 1: GGRYVHDCFIAQVGDLCDLALHPAPAPAPAPAPAPAPA
peptide 2: VVCQDWEGVELCWQGG
modifications: cysteine pairing not given here; also: two chains joined by non-peptidyl linker L11 (click chemistry)
notes: Made by click chemistry
As to B9, the IC50 in test [4], in test [5], in test [6] and in test [7] was < 100000 nM in each case.

B10: IL-2Rγc ligand SEQ ID NO: 224 (peptide)
peptide: DCSMWEGVELCW
notes: Used as synthetic peptide and as phage clone; also called family 1B
Regarding B10, the IC50 in test [3] is < 10000 nM.

B11: IL-2Rγc ligand SEQ ID NO: 266 (peptide)
peptide: CPSMLQGPERTWVC
notes: Used as phage clone; also called family 4
Regarding B11, the IC50 in test [3] was < 10000 nM.

B12: IL-2Rγc ligand SEQ ID NO: 248 (peptide)
peptide: DLSDLSTFWLSQ
notes: Used as synthetic peptide and as phage clone; also called family 3
As to B12, the IC50 in test [3] was < 10000 nM.
In the case of {PEG 40 kDa linear-PEG20′}-GGWYPCWMAQLGELCDLDGGGGSGGVVCQDWEGVELCWQGG (cysteine pairing not given here; reading uncertain) [PEG-IL-2Rβγc ligand construct PEG-6], in the test with hu-IL-2R, the “EC50 (STAT5, NK92)” value came out at 1.6 nM. For the same molecule, the figures for the IC50 in test [1] and in test [2] were 17 nM and 3.4 nM, respectively.
As to {PEG 20 kDa linear-PEG20′}-GGWYPCWMAQLGELCDLDGGGGSGGVVCQDWEGVELCWQGG (cysteine pairing not given here; reading uncertain) [PEG-IL-2Rβγc ligand construct PEG-5], the “EC50 (STAT5, NK92)” value with hu-IL-2R turned out to be 1 nM. The IC50 in test [1] is 33 nM; in test [2], 4.1 nM.
Turning to GGWYPCWMAQLGELCDLDGGGGSGGVVCQDWEGVELCWQGG-{PEG10-PEG 40 kDa branched} (cysteine pairing not given here) [PEG-IL-2Rβγc ligand construct PEG-4], the “EC50 (STAT5, NK92)” value with hu-IL-2R is 24 nM. For the same molecule, the IC50 was determined as 8.5 nM in test [1] and 3.7 nM in test [2].

B13: PEG-IL-2Rβγc ligand construct PEG-3 (peptide)
peptide: {PEG 40 kDa branched}-APAPAPAPAPAPGGWYPCWMAQLGELCDLDGGGGSGGVVCQDWEGVELCWQGG
modifications: cysteine pairing not given here
Regarding B13, the “EC50 (STAT5, NK92)” value with hu-IL-2R stood at 2.3 nM. Also, the results for the IC50 in test [1] and in test [2] were 14 nM and 4.3 nM, respectively.
